Changes are numbered by the printed parent chain.
B1: G7(1A03) Fab (Fab, V domains shown)
VH: QVQLVQSGAEVKKPGASVKVSCKASGYTFTSQYMHWVRQAPGQGLEWMGWISPNNGDTNYAQKFQGRVTMTRDTSTSTVYMELSSLRSEDTAVYYCARELGYYYGMDVWGQGTTVTVSS
VL: DIQMTQSPSSLSASVGDRVTITCRASQSISTWLAWYQQKPGKAPKLLIYYASSLQSGVPSRFSGSGSGTDFTLTISSLQPEDFATYYCQQSYSFPYTFGQGTKVEIK
notes: Fab
B2: G7(2C02) Fab (Fab, V domains shown)
VH: QVQLVQSGAEVKKPGASMKVSCKASGYTFTTDGISWVRQAPGQGLEWMGRIYPHSGYTEYAKKFKGRVTMTRDTSTSTVYMELSSLRSEDTAVYYCARQDGGAFAFDIWGQGTMVTVSS
VL: DIQMTQSPSSLSASVGDRVTITCQASQDIFKYLNWYQQKPGKAPKLLIYAASTLQSGVPSRFSGSGSGTDFTLTISSLQPEDFATYYCQQSYSTPPTFGQGTRLEIK
notes: Fab
B3: G7(2E09) Fab (Fab, V domains shown)
VH: QVQLVQSGAEVKKPGSSVKVSCKASRYTFTSYDINWVRQAPGQGLEWMGRIIPMLNIANYAPKFQGRVTITADESTSTAYMELSSLRSEDTAVYYCARALIFGVPLLPYGMDVWGQGTTVTVSS
VL: not shown
notes: Fab
B4: G10(5C08) scFv (scFv, V domains shown)
VH: QVQLVQSGAEVKKPGASVKVSCKASGYNFTGYYMHWVRQAPGQGLEWMGIIAPSDGSTNYAQKFQGRVTMTRDTSTSTVYMELSSLRSEDTAVYYCARETGDDAFDIWGQGTMVTVSS
VL: not shown
B5: G5(1E05) scFv (scFv, V domains shown)
VH: QVQLVQSGAEVKKPGASVKVSCKASGYTFTSYNMHWVRQAPGQGLEWMGWINPNSGGTNYAQKFQGRVTMTRDTSTSTVYMELSSLRSEDTAVYYCARDVMDVWGQGTTVTVSS
VL: B1 VL with S28G, T31N, W32Y, A34N, S91T, S93M, F94M
B6: G5(4E04) scFv (scFv, V domains shown)
VH: QVQLVQSGAEVKKPGASVKVSCKASGGTFSSYGISWVRQAPGQGLEWMGWINPNSGVTKYAQKFQGRVTMTRDTSTSTVYMELSSLRSEDTAVYYCARGDYYFDYWGQGTLVTVSS
VL: B1 VL with T31R, W32F, A34N, Y50G, S53R, L54P, F94T, Y96L
B7: G5(1C12) scFv (scFv, V domains shown)
VH: QVQLVQSGAEVKKPGSSVKVSCKASGGTFSNFGVSWLRQAPGQGLEWMGGIIPILGTANYAQKFQGRVTITADESTSTAYMELSSLRSEDTAVYYCATPTNSGYYGPYYYYGMDVWGQGTTVTVSS
VL: B1 VL with T31S, Y50A, S53T, F94I, Y96L, Q100G
notes: also called G5-P1C12
B8: G5(1B12) scFv (scFv, V domains shown)
VH: EVQLLESGGGLVQPGGSLRLSCAASGFTFSNSDMNWVRQAPGKGLEWVASISSSGGYINYADSVKGRFTISRDNSKNTLYLQMNSLRAEDTAVYYCAKVNWNDGPYFDYWGQGTLVTVSS
VL: B1 VL with T31S, Y50A, S91A, Y92N, Y96L, Q100G
B9: G5(2B10) scFv (scFv, V domains shown)
VH: QVQLVQSGAEVKKPGASVKVSCKASGGTFSSYAISWVRQAPGQGLEWMGWMNPDSGSTGYAQRFQGRVTMTRDTSTSTVYMELSSLRSEDTAVYYCARGHSSGWYYYYGMDVWGQGTTVTVSS
VL: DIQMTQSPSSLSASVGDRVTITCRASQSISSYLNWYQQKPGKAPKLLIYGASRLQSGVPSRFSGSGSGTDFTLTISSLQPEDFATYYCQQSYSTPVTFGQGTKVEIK
B10: G5(4B01) scFv (scFv, V domains shown)
VH: QVQLVQSGAEVKKPGSSVKVSCKASGGTFSSYAISWVRQAPGQGLEWMGGIIPIVGTANYAQKFQGRVTITADESTSTAYMELSSLRSEDTAVYYCARGGSYYYYGMDVWGQGTTVTVSS
VL: not shown
B11: G5(3G05) scFv (scFv, V domains shown)
VH: QVQLVQSGAEVKKPGASVKVSCKASGYTFTNYYMHWVRQAPGQGLEWMGIINPSGGSTSYAQKFQGRVTMTRDTSTSTVYMELSSLRSEDTAVYYCARSWFGGFNYHYYGMDVWGQGTTVTVSS
VL: DIQMTQSPSSLSASVGDRVTITCQASEDISNHLNWYQQKPGKAPKLLIYDALSLQSGVPSRFSGSGSGTDFTLTISSLQPEDFATYYCQQANSFPFTFGPGTKVDIK
B12: G5(3G08) scFv (scFv, V domains shown)
VH: QVQLVQSGAEVKKPGASVKVSCKASGYIFRNYPMHWVRQAPGQGLEWMGWINPDSGGTKYAQKFQGRVTMTRDTSTSTVYMELSSLRSEDTAVYYCARDNGVGVDYWGQGTLVTVSS
VL: B1 VL with S28G, T31N, W32Y, Y50A, S93I, F94T, V104L
B13: G5(3G01) scFv (scFv, V domains shown)
VH: QVQLVQSGAEVKKPGASVKVSCKASGGTFSGYLVSWVRQAPGQGLEWMGWINPNSGGTNTAQKFQGRVTMTRDTSTSTVYMELSSLRSEDTAVYYCAREGYGMDVWGQGTTVTVSS
VL: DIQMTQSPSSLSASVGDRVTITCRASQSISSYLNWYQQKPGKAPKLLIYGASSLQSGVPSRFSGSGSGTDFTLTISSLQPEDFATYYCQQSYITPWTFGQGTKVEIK
B14: G5(1D06) scFv (scFv, V domains shown)
VH: QVQLVQSGAEVKKPGASVKVSCKASGYTFTSYDINWVRQAPGQGLEWMGWINPNSGDTKYSQKFQGRVTMTRDTSTSTVYMELSSLRSEDTAVYYCARDGTRYYGMDVWGQGTTVTVSS
VL: not shown
B15: G5(4B02) scFv (scFv, V domains shown)
VH: QVQLVQSGAEVKKPGASVKVSCKASGYTFTGYYMHWVRQAPGQGLEWMGWMNPNIGNTGYAQKFQGRVTMTRDTSTSTVYMELSSLRSEDTAVYYCARGIADSGSYYGNGRDYYYGMDVWGQGTTVTVSS
VL: DIVMTQSPDSLAVSLGERATINCKTSQSVLYRPNNENYLAWYQQKPGQPPKLLIYQASIREPGVPDRFSGSGSGTDFTLTISSLQAEDVAVYYCQQYYTTPYTFGQGTKLEIK
B16: G5(1H11) scFv (scFv, V domains shown)
VH: EVQLLESGGGLVKPGGSLRLSCAASGFTFSDYYMSWVRQAPGKGLEWVSYISSSSSYTNYADSVKGRFTISRDDSKNTLYLQMNSLKTEDTAVYYCARDVVANFDYWGQGTLVTVSS
VL: EIVMTQSPATLSVSPGERATLSCRASQSVSSNLAWYQQKPGQAPRLLIYAASARASGIPARFSGSGSGTEFTLTISSLQSEDFAVYYCQQYGSWPRTFGQGTKVEIK
B17: G8(2E04) Fab (Fab, V domains shown)
VH: QVQLVQSGAEVKKPGSSVKVSCKASGGTFSSYGVSWVRQAPGQGLEWMGWISPYSGNTDYAQKFQGRVTITADESTSTAYMELSSLRSEDTAVYYCARGLYYMDVWGKGTTVTVSS
VL: B1 VL with T31S, Y50D, S53N, Q55E, S56T, F94T, Y96L, Q100G, V104L
notes: Fab
B18: G8(2C10) Fab (Fab, V domains shown)
VH: QVQLVQSGAEVKKPGASVKVSCKASGYTFTSYYMHWVRQAPGQGLEWMGWINPYSGGTNYAQKFQGRVTMTRDTSTSTVYMELSSLRSEDTAVYYCAKGGIYYGSGSYPSWGQGTLVTVSS
VL: B1 VL with S28D, I29V, Y50A, Y92H, F94T, Y96Q
notes: Fab
B19: G8(1C11) Fab (Fab, V domains shown)
VH: QVQLVQSGAEVKKPGASVKVSCKASGGTLSSYPINWVRQAPGQGLEWMGWISTYSGHADYAQKLQGRVTMTRDTSTSTVYMELSSLRSEDTAVYYCARSYDYGDYLNFDYWGQGTLVTVSS
VL: B2 VL with F30S, K31N, T53S, T94I, Q100G, R103K, L104V, E105D
notes: Fab; also called G8-P1C11

These binders were tested against HLA-A*02:01_… (HLA-PEPTIDE target G7), recombinant biotinylated complex (human, enzymatically biotinylated (BirA)) (assay: BLI, pHLA on sensor, Fab titrated, 1:1 model).

| Binder | Kd [nM] | koff [s⁻¹] | kon [M⁻¹ s⁻¹] |
| --- | --- | --- | --- |
| B1 | 532 | 0.0994 | 197000 |
| B2 | 531 | 0.0543 | 104000 |
| B3 | 11.8 | 0.00212 | 185000 |

These binders were tested against HLA-A*01:01_… (HLA-PEPTIDE target G10), recombinant biotinylated complex (human, enzymatically biotinylated (BirA)) (assay: scFv PPE ELISA).

| Binder | fold selective binding to target pHLA over minipool of negative control pHLAs [fold] |
| --- | --- |
| B4 | ≥ 3 |

These binders were tested against T1, HLA-B*35:01_… (HLA-PEPTIDE target G5), recombinant biotinylated complex (human, enzymatically biotinylated (BirA)) (assay: scFv PPE ELISA).
T1 construct: also called G5-pHLA

| Binder | fold selective binding to target pHLA over minipool of negative control pHLAs [fold] |
| --- | --- |
| B5 | ≥ 3 |
| B6 | ≥ 3 |
| B7 | ≥ 3 |
| B8 | ≥ 3 |
| B9 | ≥ 3 |
| B10 | ≥ 3 |
| B11 | ≥ 3 |
| B12 | ≥ 3 |
| B13 | ≥ 3 |
| B14 | ≥ 3 |
| B15 | ≥ 3 |
| B16 | ≥ 3 |

The binders below were run against HLA-A*02:01_… (HLA-PEPTIDE target G8), recombinant complex (human, enzymatically biotinylated (BirA) for screening and functional assays) (assay: BLI, pHLA on sensor, Fab titrated, 1:1 model).
Method: Binding affinity was assessed by bio-layer interferometry (BLI) using an Octet Qke (ForteBio). Briefly, biotinylated pHLA complexes in kinetics buffer were loaded onto streptavidin sensors for 300 seconds, at concentrations which gave the optimal nm shift response (approximately 0.6 nm) for each Fab at the highest concentration used. The ligand-loaded tips were subsequently equilibrated in the kinetics buffer for 120 seconds. The ligand-loaded biosensors were then dipped for 200 seconds in the Fab solution titrated into 2-fold dilutions. […] The dissociation step in the kinetics buffer was measured for 200 seconds. Data were analyzed using the ForteBio data analysis software using a 1:1 binding model.

| Binder | Kd [nM] | koff [s⁻¹] | kon [M⁻¹ s⁻¹] |
| --- | --- | --- | --- |
| B17 | 286 | 0.0789 | 545000 |
| B18 | 17.7 | 0.0013 | 75000 |
| B19 | 178 | 0.0338 | 190000 |

Source: patent US20240059797A1 (GRITSTONE BIO, published 2024)
